# Patent US20160264649A1
# How the values were obtained:
# Experiment in all cases: cell-based or functional assay
# [1] = target: HIV-1 Env of isolate 93MW959 (HIV-1)
# [2] = target: HIV-1 Env of isolate MGRM-Chronic-B-020 (HIV-1)
# [3] = target: HIV-1 Env of isolate APV_17 (HIV-1)
# [4] = target: HIV-1 Env of isolate MG RM-C-026 (HIV-1)
# [5] = target: HIV-1 Env of isolate 98IN022 (HIV-1)
# [6] = target: HIV-1 Env of isolate PVO.4 (HIV-1)
# [7] = target: HIV-1 Env of isolate 97ZA012 (HIV-1)
# [8] = target: HIV-1 Env of isolate 93TH305 (HIV-1)
# [9] = target: HIV-1 Env of isolate MGRM-Chronic-B-012 (HIV-1)
# [10] = target: HIV-1 Env of isolate TRO.11 (HIV-1)
# [11] = target: HIV-1 Env of isolate APV_13 (HIV-1)
# [12] = target: HIV-1 Env of isolate MG RM-C-025 (HIV-1)
# [13] = target: HIV-1 Env of isolate MGRM-Chronic-B-024 (HIV-1)
# [14] = target: HIV-1 Env of isolate APV_6 (HIV-1)
# [15] = target: HIV-1 Env of isolate MGRM-Chronic-B-004 (HIV-1)
# [16] = target: HIV-1 Env of isolate MGRM-Chronic-B-011 (HIV-1)
# [17] = target: HIV-1 Env of isolate MGRM-Chronic-B-018 (HIV-1)
# [18] = target: HIV-1 Env of isolate MGRM-Chronic-B-003 (HIV-1)
# [19] = target: HIV-1 Env of isolate MG RM-C-022 (HIV-1)
# [20] = target: HIV-1 Env of isolate MGRM-Chronic-B-001 (HIV-1)
# [21] = target: HIV-1 Env of isolate MG RM-C-020 (HIV-1)
# [22] = target: HIV-1 Env of isolate 6535.3 (HIV-1)
# [23] = target: HIV-1 Env of isolate MGRM-Chronic-B-008 (HIV-1)
# [24] = target: HIV-1 Env of isolate MG RM-C-023 (HIV-1)
# [25] = target: HIV-1 Env of isolate THR0.18 (HIV-1)
# [26] = target: HIV-1 Env of isolate MG RM-C-028 (HIV-1)
# [27] = target: HIV-1 Env of isolate JRFL (HIV-1)
# [28] = target: HIV-1 Env of isolate MGRM-Chronic-B-002 (HIV-1)
# [29] = target: HIV-1 Env of isolate MGRM-Chronic-B-010 (HIV-1)
# [30] = target: HIV-1 Env of isolate MG RM-C-024 (HIV-1)
# [31] = target: HIV-1 Env of isolate 93IN905 (HIV-1)
# [32] = target: HIV-1 Env of isolate SF162 (HIV-1) (UniProt P19550)
# [33] = target: HIV-1 Env of isolate SC422661.8 (HIV-1)
# [34] = target: HIV-1 Env of isolate VLGCB3 (HIV-1)
# [35] = target: HIV-1 Env of isolate MG RM-C-027 (HIV-1)
# [36] = target: HIV-1 Env of isolate MGRM-Chronic-B-017 (HIV-1)
# [37] = target: HIV-1 Env of isolate MGRM-Chronic-B-023 (HIV-1)
# [38] = target: HIV-1 Env of isolate QH0692.42 (HIV-1)
# [39] = target: HIV-1 Env of isolate 92 BR 020 (HIV-1)
# [40] = target: HIV-1 Env of isolate TRJ04551.58 (HIV-1)
# [41] = target: HIV-1 Env of isolate NL43 (HIV-1)
# [42] = target: HIV-1 Env of isolate CAAN.A2 (HIV-1)
# [43] = target: HIV-1 Env of isolate JRCSF (HIV-1) (UniProt P20871)
substance,measurement,setting,value
PGT-123 monoclonal antibody (4858_P08),neutralization IC50,[1],0.011 µg/mL
same,neutralization IC50,[2],0.005 µg/mL
same,neutralization IC50,[3],0.114 µg/mL
same,neutralization IC50,[4],0.001 µg/mL
same,neutralization IC50,[5],0.011 µg/mL
same,neutralization IC50,[6],0.105 µg/mL
same,neutralization IC50,[7],0.002 µg/mL
same,neutralization IC50,[8],0.008 µg/mL
same,neutralization IC50,[9],0.227 µg/mL
same,neutralization IC50,[10],0.008 µg/mL
same,neutralization IC50,[11],0.138 µg/mL
same,neutralization IC50,[12],13.3 µg/mL
same,neutralization IC50,[13],> 50 µg/mL
same,neutralization IC50,[14],0.023 µg/mL
same,neutralization IC50,[15],0.008 µg/mL
same,neutralization IC50,[16],> 50 µg/mL
same,neutralization IC50,[17],> 50 µg/mL
same,neutralization IC50,[18],0.008 µg/mL
same,neutralization IC50,[19],0.01 µg/mL
same,neutralization IC50,[20],0.15 µg/mL
same,neutralization IC50,[21],> 50 µg/mL
same,neutralization IC50,[22],0.004 µg/mL
same,neutralization IC50,[23],0.01 µg/mL
same,neutralization IC50,[24],0.011 µg/mL
same,neutralization IC50,[25],> 50 µg/mL
same,neutralization IC50,[26],0.402 µg/mL
same,neutralization IC50,[27],0.014 µg/mL
same,neutralization IC50,[28],0.234 µg/mL
same,neutralization IC50,[29],0.009 µg/mL
same,neutralization IC50,[30],0.195 µg/mL
same,neutralization IC50,[31],0.004 µg/mL
same,neutralization IC50,[32],0.005 µg/mL
same,neutralization IC50,[33],0.039 µg/mL
same,neutralization IC50,[34],0.004 µg/mL
same,neutralization IC50,[35],0.02 µg/mL
same,neutralization IC50,[36],> 50 µg/mL
same,neutralization IC50,[37],0.055 µg/mL
same,neutralization IC50,[38],0.158 µg/mL
same,neutralization IC50,[39],0.008 µg/mL
same,neutralization IC50,[40],16.9 µg/mL
same,neutralization IC50,[41],> 50 µg/mL
same,neutralization IC50,[42],0.015 µg/mL
same,neutralization IC50,[43],0.046 µg/mL
PGT-125 monoclonal antibody (5123_A06),neutralization IC50,[1],37.5 µg/mL
same,neutralization IC50,[2],0.087 µg/mL
same,neutralization IC50,[3],8.06 µg/mL
same,neutralization IC50,[4],0.005 µg/mL
same,neutralization IC50,[5],22.1 µg/mL
same,neutralization IC50,[6],0.042 µg/mL
same,neutralization IC50,[7],2.46 µg/mL
same,neutralization IC50,[8],0.008 µg/mL
same,neutralization IC50,[9],0.036 µg/mL
same,neutralization IC50,[10],0.111 µg/mL
same,neutralization IC50,[11],0.007 µg/mL
same,neutralization IC50,[12],42.5 µg/mL
same,neutralization IC50,[13],> 50 µg/mL
same,neutralization IC50,[14],0.021 µg/mL
same,neutralization IC50,[15],0.007 µg/mL
same,neutralization IC50,[16],3.23 µg/mL
same,neutralization IC50,[17],> 50 µg/mL
same,neutralization IC50,[18],0.157 µg/mL
same,neutralization IC50,[19],1.23 µg/mL
same,neutralization IC50,[20],> 50 µg/mL
same,neutralization IC50,[21],> 50 µg/mL
same,neutralization IC50,[22],0.01 µg/mL
same,neutralization IC50,[23],> 50 µg/mL
same,neutralization IC50,[24],1.31 µg/mL
same,neutralization IC50,[25],> 50 µg/mL
same,neutralization IC50,[26],14 µg/mL
same,neutralization IC50,[27],0.009 µg/mL
same,neutralization IC50,[28],0.064 µg/mL
same,neutralization IC50,[29],0.006 µg/mL
same,neutralization IC50,[30],> 50 µg/mL
same,neutralization IC50,[31],0.009 µg/mL
same,neutralization IC50,[32],0.004 µg/mL
same,neutralization IC50,[33],30.1 µg/mL
same,neutralization IC50,[34],0.015 µg/mL
same,neutralization IC50,[35],> 50 µg/mL
same,neutralization IC50,[36],> 50 µg/mL
same,neutralization IC50,[37],> 50 µg/mL
same,neutralization IC50,[38],0.048 µg/mL
same,neutralization IC50,[39],0.016 µg/mL
same,neutralization IC50,[40],0.019 µg/mL
same,neutralization IC50,[41],> 50 µg/mL
same,neutralization IC50,[42],5.47 µg/mL
same,neutralization IC50,[43],0.004 µg/mL
PGT-126 monoclonal antibody (5141_B17),neutralization IC50,[1],9.44 µg/mL
same,neutralization IC50,[2],0.021 µg/mL
same,neutralization IC50,[3],0.353 µg/mL
same,neutralization IC50,[4],0.007 µg/mL
same,neutralization IC50,[5],0.279 µg/mL
same,neutralization IC50,[6],0.017 µg/mL
same,neutralization IC50,[7],0.042 µg/mL
same,neutralization IC50,[8],0.013 µg/mL
same,neutralization IC50,[9],0.027 µg/mL
same,neutralization IC50,[10],0.041 µg/mL
same,neutralization IC50,[11],0.012 µg/mL
same,neutralization IC50,[12],0.786 µg/mL
same,neutralization IC50,[13],> 50 µg/mL
same,neutralization IC50,[14],0.007 µg/mL
same,neutralization IC50,[15],0.01 µg/mL
same,neutralization IC50,[16],0.108 µg/mL
same,neutralization IC50,[17],0.052 µg/mL
same,neutralization IC50,[18],0.041 µg/mL
same,neutralization IC50,[19],0.96 µg/mL
same,neutralization IC50,[20],> 50 µg/mL
same,neutralization IC50,[21],> 50 µg/mL
same,neutralization IC50,[22],0.022 µg/mL
same,neutralization IC50,[23],5.89 µg/mL
same,neutralization IC50,[24],0.065 µg/mL
same,neutralization IC50,[25],> 50 µg/mL
same,neutralization IC50,[26],0.196 µg/mL
same,neutralization IC50,[27],0.014 µg/mL
same,neutralization IC50,[28],0.078 µg/mL
same,neutralization IC50,[29],0.005 µg/mL
same,neutralization IC50,[30],> 50 µg/mL
same,neutralization IC50,[31],0.015 µg/mL
same,neutralization IC50,[32],0.003 µg/mL
same,neutralization IC50,[33],0.119 µg/mL
same,neutralization IC50,[34],0.007 µg/mL
same,neutralization IC50,[35],15.6 µg/mL
same,neutralization IC50,[36],> 50 µg/mL
same,neutralization IC50,[37],> 50 µg/mL
same,neutralization IC50,[38],0.048 µg/mL
same,neutralization IC50,[39],0.015 µg/mL
same,neutralization IC50,[40],0.025 µg/mL
same,neutralization IC50,[41],> 50 µg/mL
same,neutralization IC50,[42],0.273 µg/mL
same,neutralization IC50,[43],0.008 µg/mL
